T1: cyno KLRG1 extracellular domain (ECD) (cynomolgus, biotinylated in the Octet assay (site not stated))
T1 construct: Recombinant proteins were made as FC fusion or HIS tagged versions; also called cynomolgus-KLRG1-ECD; cyno KRG1 ECD
T1 chain: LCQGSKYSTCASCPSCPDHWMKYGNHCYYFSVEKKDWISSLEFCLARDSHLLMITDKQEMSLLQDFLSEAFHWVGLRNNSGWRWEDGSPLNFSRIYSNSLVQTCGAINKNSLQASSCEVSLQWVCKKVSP

T2: human KLRG1 extracellular domain (ECD) (human, UniProt Q96E93 60-186, biotinylated in the Octet assay (site not stated))
T2 construct: Recombinant proteins were made as FC fusion or HIS tagged versions; also called Human-KLRG-ECD; human KLRG1 ECD
T2 sequence: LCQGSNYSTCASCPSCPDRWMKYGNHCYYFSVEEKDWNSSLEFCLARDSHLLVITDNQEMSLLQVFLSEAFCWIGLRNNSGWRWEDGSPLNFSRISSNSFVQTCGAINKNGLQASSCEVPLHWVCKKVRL

T3: full length human KLRG1 (cell-expressed) (human, UniProt Q96E93 1-195)
T3 construct: whole, on cells; also called CHO-human-KLRG1
T3 sequence (looked up): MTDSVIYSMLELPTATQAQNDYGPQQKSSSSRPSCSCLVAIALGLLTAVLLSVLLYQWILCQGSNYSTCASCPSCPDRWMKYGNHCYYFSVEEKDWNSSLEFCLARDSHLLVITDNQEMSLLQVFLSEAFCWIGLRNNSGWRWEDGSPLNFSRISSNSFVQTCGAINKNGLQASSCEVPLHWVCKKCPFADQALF

T4: full length cynomolgus KLRG1 (cell-expressed) (cynomolgus, UniProt A0A2K5WAP9 1-186)
T4 construct: whole, on cells; also called CHO-cynomolgus-KLRG1; cyno KLRG1
T4 sequence: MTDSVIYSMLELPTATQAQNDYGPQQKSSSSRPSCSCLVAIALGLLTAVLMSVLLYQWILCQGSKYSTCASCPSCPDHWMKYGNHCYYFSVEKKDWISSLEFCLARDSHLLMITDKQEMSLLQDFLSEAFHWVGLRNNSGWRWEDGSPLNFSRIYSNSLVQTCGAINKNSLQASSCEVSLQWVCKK

T5: WEDGSPLNFSRISSN
T5 peptide: WEDGSPLNFSRISSN

T6: SPLNFSRISSNSFVQ
T6 peptide: SPLNFSRISSNSFVQ


Assays:
[1] = molecular target: T1, cyno KLRG1 extracellular domain (ECD); assay: Octet BLI, biotinylated antigen on streptavidin sensor, antibody in solution, 1:1 fit
Procedure: (§1) Binging kinetics of humanized antibodies for human and cynomolgus KLRG1 were determined by Octet® Systems (ForteBio) measurement. The Octet® platform includes instruments, biosensors, reagents, and assay kits for analysis of biomolecular interactions in 96- and 384-well microplates for use in real-time, label-free analysis for determination of affinity, kinetics, and concentration. The experimental set-up includes immobilizing biotinylated recombinant antigen (Human-KLRG-ECD or cynomolgus-KLRG1-ECD) on a streptavidin Octet® sensor to produce antigen loaded sensors. […] Thereafter, the sensors can be exposed to a solution of 1× phosphate buffered saline (PBS) buffer devoid of antibody for approximately 600 seconds to observe dissociation kinetics (kdis). The resulting data can then be fitted to a 1:1 binding kinetics model using, for example, ForteBio analysis software to calculate the KD. Kinetic binding parameters derived by this method are summarized in Table 8 for three humanized antibodies.

[2] = molecular target: T2, human KLRG1 extracellular domain (ECD); assay: as above
Procedure: as §1

[3] = molecular target: T3, full length human KLRG1 (cell-expressed); assay: FACS on CHO cells expressing full length human KLRG1, anti-mouse detection
Procedure: (§2) Binding of anti-KLRG1 monoclonal antibodies to cells that expressed human and cynomolgus-KLRG1 was carried out by FACS. Chinese hamster ovary (CHO) cells were stably transfected to express full length human KLRG1 (CHO-human-KLRG1) and cynomolgus KLRG1 (CHO-cynomolgus-KLRG1). […] Table 7 summarizes the EC50 binding data measured for selected antibodies.

[4] = molecular target: T1, cyno KLRG1 extracellular domain (ECD); assay: hybridoma screening for binding to cyno KLRG1 ECD
[5] = molecular target: T4, full length cynomolgus KLRG1 …; assay: FACS on CHO cells expressing full length cynomolgus KLRG1, anti-mouse detection
Procedure: as §2

[6] = molecular target: T5, WEDGSPLNFSRISSN; assay: peptide mapping: ABC_G1D03 on overlapping KLRG1 peptides, signal per peptide
[7] = molecular target: T6, SPLNFSRISSNSFVQ; assay: as above

Row | Binder | Kd [1] | koff [1] | kon [1] | Kd [2] | koff [2] | kon [2] | EC50 [3] | binding result [4] | EC50 [5] | binding result [6] | binding result [7]
1 | ABC_HG1D03 (antibody, V domains shown, The printed VK entry ends at '...FGGGTKV' (appears cut short of the usual end of the domain)) VH: EVQLVQSGAEVKKPGASVKVSCKASGYTFTDHNMHWVKQATGQGLEWFGFINPNTGVTRYNQKFQGRVTLTINKAISTAYLELSSLRSEDTAVYYCARDYYGSAWFAYWGQGTLVTVSS VL: not shown | 0.0609 nM | 3.82e-05 s⁻¹ | 627000 M⁻¹ s⁻¹ | 0.156 nM | 5.91e-05 s⁻¹ | 380000 M⁻¹ s⁻¹ | – | – | – | – | –
2 | ABC_HG1D02 (antibody, V domains shown, The printed VK entry ends in 'RTV' (start of the constant kappa domain)) VH: QVQLVQSGAEVKKPGSSVKVSCKASGYAFTNYFIEWVRQRPGQGLEWMGVINPGSGGTNYNEKFKGRVTITADKSSSTAYMELSSLRSEDTAVYYCARPGHFDYWGQGTTVTVSS VL: EIVLTQSPTTLSLSPGERATLSCSASSSISSNYLHWYQQKPGFAPRLLIYKTSNLASGIPPRFSGSGSGTDFTLTISRLEPEDFAVYYCQQGNSIPRTFGQGTKVEIKR | 0.388 nM | 0.000142 s⁻¹ | 367000 M⁻¹ s⁻¹ | 0.0567 nM | 3.07e-05 s⁻¹ | 541000 M⁻¹ s⁻¹ | – | – | – | – | –
3 | ABC_G1D02 (antibody, V domains shown, Mouse hybridoma monoclonal antibody) VH: QVQLQQSGAELVRPGTSVKVSCKASGYAFTNYFIEWIKQRPGQGLEWIGVINPGSGGTNYNEKFKGKATLTADKSSSTAYMQLSSLTSEDSAVYFCTRPGHFDYWGQGTTLTVSS VL: EIVLTQSPTTMAASPGEKITITCSASSSISSNYLHWYQQKPGFSPKLLIYKTSNLASGVPPRFSGSGSGTSYSLTIGTMEAEDVATYYCQQGNSIPRTFGGGTKLEIK | – | – | – | – | – | – | 9.11 nM | binds | 10.1 nM | – | –
4 | ABC_G1D04 (antibody, V domains shown, Mouse hybridoma monoclonal antibody) VH: EVQLQQSGPELVKPGSSLMMSCKSSGYTFTDYNIHWVKQSHGKRLEWIGFIDPKNGGTLYSEKFKDKATLTINKSSSTAYMELRSLTSEDSAVFYCAPDYYGSAWFAYWGQGTLVTVSA VL: DIVMSQSPSSLTVSVGENVTMSCKSSQNLLYTSNQKNYLAWYQQKPGHSPKLLISWASTRESGVPDRFTGSGSGTDFTLTITSVKAEDLAVFYCQQYYHYPTFGGGTKLEIK | – | – | – | – | – | – | 213 nM | binds | 7.2 nM | – | –
5 | ABC_G1D06 (antibody, V domains shown, Mouse hybridoma monoclonal antibody) VH: QVQLQQSGAELVRPGASVTLSCKASGYKFSDYEIHWVKQTPVYGLEWIGALEPATGGTAYNPNFKGKAILTADKSSTTAYMELRSLTSEDSAVYYCSMHLAVYWGQGTLVTVSA VL: not shown | – | – | – | – | – | – | 72.5 nM | binds | 3.4 nM | – | –
6 | ABC_G1D03 (antibody, V domains shown, Mouse hybridoma monoclonal antibody) VH: EVQLQQSGPELVKPGASVKMSCKTSGYTFTDHNMHWLKQSHGKGLEWFGFINPNTGVTRYNQKFNGKATLTINKSSSTAYLDLRSLTSEDSAVYYCTRDYYGSAWFAYWGQGTLVTVSA VL: DIVMSQSPASQTVSVGEKVTMSCKSSQTLLYSSDQKNYLAWYQQKPGQSPKLLIYWASTRESGVPDRFTGSGSGTDFTLTISSVKAEDLAVYYCQQYYNYPTFGGGTKLEIK | – | – | – | – | – | – | 6.3 nM | binds | 8.63 nM | binds | binds
7 | ABC_G1D01 (antibody, V domains shown, Mouse hybridoma monoclonal antibody) VH: EVQLQQSGPELVKPGASVKMSCKASGYTFTDYNIHWVKQSHGKSLEWIGFFNPKNGVTINNQNFKGKAALTVNKSSSTAYMELRRLTSEDSAVYYCARDYYGTAWFAYWGQGTLVTVSA VL: DIVMSQSPSSLAVSVGEKVTMSCRSSQSLLYSSNQKNYLAWYQQKPGQSPKLLIYWASTRESGVPDRFTGSGSGTDFTLTISSVKAEDLAVYYCQQFYSYPTFGGGTKLEIK | – | – | – | – | – | – | 4.87 nM | – | 3.44 nM | – | –
8 | ABC_G1D05 (antibody, V domains shown, Mouse hybridoma monoclonal antibody) VH: QVQLKQSGPGLVQPSQSLSITCTVSGFSLTTHGVHWVRQSPGKGLEWLGVIWSGGSTDYNAAFISRLSIRKDNSKSQVFFKMNSLQTNDTAIYYCARLRLPAMDYWGQGTSVTVSS VL: QIVLTQSPTIMSASLGERVTMTCTASSSVSSTYLHWYQQKPGSSPKLWIYSTSNLASGVPARFSGSGSGTSYSLTISSMEAEDAATYYCHQYHRSPLSFGAGTKLELK | – | – | – | – | – | – | 5.15 nM | binds | 5.93 nM | – | –

Source: US20200325233A1 (ABCURO, published 2020)
